# Experimental data from patent publication US20250215101A1, “DR5 Agonist and PLK1 Inhibitor or CDK Inhibitor Combination Therapy” (Inhibrx Biosciences, Inc., priority 2022, published 2025).
# Legend:
# OUMS-27 = assay: Cell viability (CellTiter-Glo) cytotoxicity assay, INBRX-109 x CDK9 or MCL-1 inhibitor matrix, 48 h, chondrosarcoma line
# Description: On day 1, cells were seeded as follows. Monolayer cultures of each cell line (chondrosarcoma: CAL-78, OUMS-27, SW1353, and H-EMC-SS; colorectal cancer: SW620; and synovial sarcoma: HS-SY-II) were harvested for compound screening. Culture medium was aspirated, and the cells were washed once with PBS. Accutase was added and flasks were incubated at 37° C. until cells became detached. An equal volume of complete medium was added to quench the Accutase, and the cells were then pipetted up and down several times to generate a homogenous single cell suspension. The density and viability of cells was determined by Trypan Blue using a TC20 Automated Cell Counter. Experimental cells were resuspended to a concentration of 0.17×10^6/mL in Eagle's Minimum Essential Medium (EMEM)/10% FBS/Anti-Anti media (complete EMEM) and seeded in the inner wells of 384-well luminescence plates at 15 mL/well (2,500/well final). Each cell line was plated in duplicate on separate plates. Outer wells were filled with 50 mL PBS, then plates were incubated in a humidified temperature-controlled 37° C. tissue culture incubator at 5% CO2 overnight for 16 hours.
# These test articles were added, in duplicate, to each cell line. The plates were then centrifuged at 400×g for 1 minute, then incubated in a 37° C. humidity-controlled tissue culture incubator (5% CO2) for 48 hours.
# After incubation with the test articles, viability measurements were taken, briefly. Plates were equilibrated to room temperature for 10 minutes, then 25 μL of CellTiter-Glo 2.0® was added to each well. Plates were spun for 1 minute at 400×g, then covered and incubated in the dark for 10 minutes at room temperature. Any visible bubbles were removed with 100% ethanol vapor, then luminescence (RLU) was read on the Spectra Max M5e plate reader, using the 384-well opaque plate setting and SoftMax® Pro v5.4 software with an integration time of 50 milliseconds. To determine the effect of test articles on cell viability, raw RLU values were exported to Excel and percent survival was calculated as a percentage of vehicle control (0.5% DMSO in EMEM), where the vehicle control is set at 100%. Data was graphed in GraphPad Prism 9.
# SW-1463 = assay: Cytotoxicity assay, colorectal cancer cell line panel, onvansertib +/- 1 nM INBRX-109; type: cell-based; settings: SW-1463; 1 nM INBRX-109 only
# Description: (§1) Monolayer cultures of each cell line were harvested for compound screening as detailed below.
# (§2) Also on day 2, test and control articles were added.
# (§3) On day 4, viability measurements were taken. […] Data was graphed in GraphPad Prism 9.
# (§4) The results for a panel of colorectal cancer cell lines are shown in Table 3 and FIGS. 4-6, and the results for a panel of pancreatic cell lines are shown in Table 4 and FIGS. 7 and 8.
# LS 1034 = assay: as above; type: cell-based; settings: LS 1034; 1 nM INBRX-109 only
# Description: as §1, §2, §3, §4
# HCT-15 = assay: as above; type: cell-based; settings: HCT-15; 1 nM INBRX-109 only
# Description: as §1, §2, §3, §4
# SW-480 = assay: as above; type: cell-based; settings: SW-480; 1 nM INBRX-109 only
# Description: as §1, §2, §3, §4
# SNU-81 = assay: as above; type: cell-based; settings: 1 nM INBRX-109 only
# Description: as §1, §2, §3, §4
# COLO320DM = assay: as above; type: cell-based; settings: 1 nM INBRX-109 only
# Description: as §1, §2, §3, §4
# LoVo = assay: as above; type: cell-based; settings: 1 nM INBRX-109 only
# Description: as §1, §2, §3, §4
# T84 = assay: as above; type: cell-based; settings: T84; 1 nM INBRX-109 only
# Description: as §1, §2, §3, §4
# NCI-H716 = assay: as above; type: cell-based; settings: NCI-H716; 1 nM INBRX-109 only
# Description: as §1, §2, §3, §4
# SW-837 = assay: as above; type: cell-based; settings: SW-837; 1 nM INBRX-109 only
# Description: as §1, §2, §3, §4
# SW-403 = assay: as above; type: cell-based; settings: SW-403; 1 nM INBRX-109 only
# Description: as §1, §2, §3, §4
# HCT 116 = assay: as above; type: cell-based; settings: HCT 116; 1 nM INBRX-109 only
# Description: as §1, §2, §3, §4
# LS 123 = assay: as above; type: cell-based; settings: LS 123; 1 nM INBRX-109 only
# Description: as §1, §2, §3, §4
# DLD-1 = assay: as above; type: cell-based; settings: DLD-1; 1 nM INBRX-109 only
# Description: as §1, §2, §3, §4
# Hutu 80 = assay: as above; type: cell-based; settings: Hutu 80; 1 nM INBRX-109 only
# Description: as §1, §2, §3, §4
# HT-29 = assay: as above; type: cell-based; settings: HT-29; 1 nM INBRX-109 only
# Description: as §1, §2, §3, §4
# NCI-H747 = assay: as above; type: cell-based; settings: NCI-H747; 1 nM INBRX-109 only
# Description: as §1, §2, §3, §4
# RKO = assay: as above; type: cell-based; settings: 1 nM INBRX-109 only
# Description: as §1, §2, §3, §4
# SNU-C5 = assay: as above; type: cell-based; settings: 1 nM INBRX-109 only
# Description: as §1, §2, §3, §4
# SW-948 = assay: as above; type: cell-based; settings: SW-948; 1 nM INBRX-109 only
# Description: as §1, §2, §3, §4
# LS 513 = assay: as above; type: cell-based; settings: LS 513; 1 nM INBRX-109 only
# Description: as §1, §2, §3, §4
# LS 180 = assay: as above; type: cell-based; settings: LS 180; 1 nM INBRX-109 only
# Description: as §1, §2, §3, §4
# SNU-C2A = assay: as above; type: cell-based; settings: 1 nM INBRX-109 only
# Description: as §1, §2, §3, §4
# SK-CO-1 = assay: as above; type: cell-based; settings: SK-CO-1; 1 nM INBRX-109 only
# Description: as §1, §2, §3, §4
# SW-1116 = assay: as above; type: cell-based; settings: SW-1116; 1 nM INBRX-109 only
# Description: as §1, §2, §3, §4
# SW620 = assay: as above; type: cell-based; settings: SW620; 1 nM INBRX-109 only
# Description: as §1, §2, §3, §4
# HCT-8 = assay: as above; type: cell-based; settings: HCT-8; 1 nM INBRX-109 only
# Description: as §1, §2, §3, §4
molecule,measurement,setting,value
"INBRX-109: DR5-binding polypeptide consisting of SEQ ID NO: 7 (two VHH domains and an Fc region); DR5 agonist (protein, INBRX-109, DR5 agonist) EVQLLESGGGEVQPGGSLRLSCAASGLTFPNYGMGWFRQAPGKEREFVSAIYWSGGTVYYAESVKGRFTISRDNAKNTLYLQMSSLRAEDTAVYYCAVTIRGAATQTWKYDYWGQGTLVTVKPGGSGGSEVQLLESGGGEVQPGGSLRLSCAASGLTFPNYGMGWFRQAPGKEREFVSAIYWSGGTVYYAESVKGRFTISRDNAKNTLYLQMSSLRAEDTAVYYCAVTIRGAATQTWKYDYWGQGTLVTVKPGGGGDKTHTCPPCPAPGGPSVFLFPPKPKDTLMISRTPEVTCVVVDVSHEDPEVKFNWYVDGVEVHNAKTKPREEQYNSTYRVVSVLTVLHQDWLNGKEYKCKVSNKALPAPIEKTISKAKGQPREPQVYTLPPSRDELTKNQVSLTCLVKGFYPSDIAVEWESNGQPENNYKTTPPVLDSDGSFFLYSKLTVDKSRWQQGNVFSCSVMHEALHNHYTQKSLSLSPGK",EC50,OUMS-27; INBRX-109 + 2 μM AZD-5991,0.00871 nM
same,EC50,OUMS-27; INBRX-109 only (Table 5),0.982 nM
same,EC50,OUMS-27; INBRX-109 only (Table 7),> 4.09 nM
same,EC50,OUMS-27; INBRX-109 only (Table 11),Unstable
same,EC50,OUMS-27; INBRX-109 only (Table 13),8.87 nM
same,Max Cytotox at 1 nM,SW-1463,28.5%
same,Max Cytotox at 1 nM,LS 1034,56.9%
same,Max Cytotox at 1 nM,HCT-15,49.6%
same,Max Cytotox at 1 nM,SW-480,19.7%
same,Max Cytotox at 1 nM,SNU-81,82.1%
same,Max Cytotox at 1 nM,COLO320DM,4.7%
same,Max Cytotox at 1 nM,LoVo,16.2%
same,Max Cytotox at 1 nM,T84,9.1%
same,Max Cytotox at 1 nM,NCI-H716,9.2%
same,Max Cytotox at 1 nM,SW-837,7.1%
same,Max Cytotox at 1 nM,SW-403,15.7%
same,Max Cytotox at 1 nM,HCT 116,54.4%
same,Max Cytotox at 1 nM,LS 123,3.1%
same,Max Cytotox at 1 nM,DLD-1,41.9%
same,Max Cytotox at 1 nM,Hutu 80,4.0%
same,Max Cytotox at 1 nM,HT-29,19.9%
same,Max Cytotox at 1 nM,NCI-H747,13.4%
same,Max Cytotox at 1 nM,RKO,3.6%
same,Max Cytotox at 1 nM,SNU-C5,48.6%
same,Max Cytotox at 1 nM,SW-948,98.5%
same,Max Cytotox at 1 nM,LS 513,92.3%
same,Max Cytotox at 1 nM,LS 180,27.2%
same,Max Cytotox at 1 nM,SNU-C2A,41.4%
same,Max Cytotox at 1 nM,SK-CO-1,92.2%
same,Max Cytotox at 1 nM,SW-1116,15.3%
same,Max Cytotox at 1 nM,SW620,19.4%
same,Max Cytotox at 1 nM,HCT-8,6.7%
